Laboratory results published in paper PMC2186201.

Target: human C3bi, bound to erythrocytes (EC3bi) (human) (UniProt P01024)
Assay: conglutinin-dependent hemagglutination

B1: bovine conglutinin (natural protein)
chain: AEMTTFSQKILANACTLVMCSPLESGLPGHDGQDGRECPHGEKGDPGSPGPAGRAGRPGWVGPIGPKGDNGFVGEPGPKGDTGPRGPPGMPGPAGREGPSGKQGSMGPPGTPGPKGETGPKGGVGAPGIQGFPGPSGLKGEKGAPGETGAPGRAGVTGPSGAIGPQGPSGARGPPGLKGDRGDPGETGAKGESGLAEVNALKQRVTILDGHLRRFQNAFSQYKKAVLFPDGQAVGEKIFKTAGAVKSYSDAEQLCREAKGQLASPRSSAENEAVTQMVRAQEKNAYLSMNDISTEGRFTYPTGEILVYSNWADGEPNNSDEGQPENCVEIFPDGKWNDVPCSKQLLVICEF
- conglutination (percent of activity): 100%
